Measurements reported in patent publication US20200199204A1.

What was measured:
Assay in all cases: cell-based or functional assay
[1] = biological target: HIV-1 Env of 0260.v5.c36 (HIV-1)
[2] = biological target: HIV-1 Env of 191821.E6.1 (HIV-1)
[3] = biological target: HIV-1 Env of 3016.V5.c36 (HIV-1)
[4] = biological target: HIV-1 Env of 6405.v4.c34 (HIV-1)
[5] = biological target: HIV-1 Env of 6535.3 (HIV-1)
[6] = biological target: HIV-1 Env of 96ZM651.02 (HIV-1)
[7] = biological target: HIV-1 Env of AC10.29 (HIV-1)
[8] = biological target: HIV-1 Env of BG505.w6m (HIV-1)
[9] = biological target: HIV-1 Env of C1080.c3 (HIV-1)
[10] = biological target: HIV-1 Env of CAAN.A2 (HIV-1)
[11] = biological target: HIV-1 Env of CAP210.E8 (HIV-1)
[12] = biological target: HIV-1 Env of CAP244.D3 (HIV-1)
[13] = biological target: HIV-1 Env of CAP256.PI (HIV-1)
[14] = biological target: HIV-1 Env of CAP256.SU (HIV-1)
[15] = biological target: HIV-1 Env of CAP45.G3 (HIV-1)
[16] = biological target: HIV-1 Env of CM244.ec1 (HIV-1)
[17] = biological target: HIV-1 Env of CNE3 (HIV-1)
[18] = biological target: HIV-1 Env of DU156.12 (HIV-1)
[19] = biological target: HIV-1 Env of DU172.17 (HIV-1)
[20] = biological target: HIV-1 Env of DU422.01 (HIV-1)
[21] = biological target: HIV-1 Env of KER2008.12 (HIV-1)
[22] = biological target: HIV-1 Env of KER2018.11 (HIV-1)
[23] = biological target: HIV-1 Env of MB201 (HIV-1)
[24] = biological target: HIV-1 Env of MB539.2B7 (HIV-1)
[25] = biological target: HIV-1 Env of PVO.04 (HIV-1)
[26] = biological target: HIV-1 Env of Q168.a2 (HIV-1)
[27] = biological target: HIV-1 Env of Q23.17 (HIV-1)
[28] = biological target: HIV-1 Env of Q259.d2.17 (HIV-1)
[29] = biological target: HIV-1 Env of Q461.e2 (HIV-1)
[30] = biological target: HIV-1 Env of Q769.d22 (HIV-1)
[31] = biological target: HIV-1 Env of Q842.d12 (HIV-1)
[32] = biological target: HIV-1 Env of QH0692.42 (HIV-1)
[33] = biological target: HIV-1 Env of REJO.67 (HIV-1)
[34] = biological target: HIV-1 Env of RHPA.7 (HIV-1)
[35] = biological target: HIV-1 Env of RW020.2 (HIV-1)
[36] = biological target: HIV-1 Env of SC422.8 (HIV-1)
[37] = biological target: HIV-1 Env of TH976.17 (HIV-1)
[38] = biological target: HIV-1 Env of THRO.18 (HIV-1)
[39] = biological target: HIV-1 Env of TRJO.58 (HIV-1)
[40] = biological target: HIV-1 Env of TRO.11 (HIV-1)
[41] = biological target: HIV-1 Env of UG037.8 (HIV-1)
[42] = biological target: HIV-1 Env of WITO.33 (HIV-1)
[43] = biological target: HIV-1 Env of ZM109.4 (HIV-1)
[44] = biological target: HIV-1 Env of ZM135.10a (HIV-1)
[45] = biological target: HIV-1 Env of ZM197.7 (HIV-1)
[46] = biological target: HIV-1 Env of ZM214.15 (HIV-1)
[47] = biological target: HIV-1 Env of ZM233.6 (HIV-1)
[48] = biological target: HIV-1 Env of ZM249.1 (HIV-1)
[49] = biological target: HIV-1 Env of ZM53.12 (HIV-1)
[50] = biological target: Env of SIVmac251.30 (SIV (SIVmac251))

CAP256-VRC26.23 (antibody)
> 50 µg/mL: IC50 [1] | IC50 [2] | IC50 [3] | IC50 [4] | IC50 [5] | IC50 [6] | IC50 [7] | IC50 [8] | IC50 [9] | IC50 [10] | IC50 [12] | IC50 [13] | IC50 [15] | IC50 [16] | IC50 (neutralization, TZM-bl) [17] | IC50 [18] | IC50 [19] | IC50 [20] | IC50 [21] | IC50 [23] | IC50 [24] | IC50 [25] | IC50 [26] | IC50 [27] | IC50 [28] | IC50 [29] | IC50 [30] | IC50 [31] | IC50 [32] | IC50 [33] | IC50 [34] | IC50 [35] | IC50 [36] | IC50 (neutralization, TZM-bl) [37] | IC50 [38] | IC50 [39] | IC50 [40] | IC50 [41] | IC50 [42] | IC50 [43] | IC50 [44] | IC50 [45] | IC50 [46] | IC50 [47] | IC50 [48]
0.028 µg/mL: IC50 [49]
10 µg/mL: IC50 [22]
0.019 µg/mL: IC50 [11] | IC50 [14]

CAP256-VRC26.24 (antibody)
17.4 µg/mL: IC50 [9]
16.5 µg/mL: IC50 [43]
5.63 µg/mL: IC50 [8]
10.8 µg/mL: IC50 [18]
5.92 µg/mL: IC50 [27]
0.23 µg/mL: IC50 [11]
1.1 µg/mL: IC50 [22]
0.047 µg/mL: IC50 [49]
0.672 µg/mL: IC50 [15]
1.67 µg/mL: IC50 [47]
3.41 µg/mL: IC50 [26]
2.12 µg/mL: IC50 [3]
32 µg/mL: IC50 [46]
12.6 µg/mL: IC50 [45]
31.1 µg/mL: IC50 [28]
21.6 µg/mL: IC50 [20]
0.04 µg/mL: IC50 [14]
13.6 µg/mL: IC50 [48]
> 50 µg/mL: IC50 (neutralization, TZM-bl) [50] | IC50 [1] | IC50 [4] | IC50 [5] | IC50 [6] | IC50 [7] | IC50 [10] | IC50 [12] | IC50 [13] | IC50 [16] | IC50 (neutralization, TZM-bl) [17] | IC50 [19] | IC50 [21] | IC50 [23] | IC50 [24] | IC50 [25] | IC50 [29] | IC50 [30] | IC50 [31] | IC50 [32] | IC50 [33] | IC50 [34] | IC50 [35] | IC50 [36] | IC50 (neutralization, TZM-bl) [37] | IC50 [38] | IC50 [39] | IC50 [40] | IC50 [41] | IC50 [42] | IC50 [44]
